# Laboratory results from the DeepSol protein solubility set.
# Test: soluble on expression in E. coli; label from the status in PepcDB or PDB records
row,Sequence,soluble on expression in E. coli
1,MGSDKIHHHHHHMYVLAIDQSTSGTKAIIFDEKGGIVHRVTVYHKQYYPKPGWVEHDPEEIFRNTLDACRKVIEESGIKPLEIEALAITNQRETTILWEKKSGKPVYNAVVWQCQRGASLCEEIKKRGLEGKIKEKTGLVVDPYFSASKIRWILDNVEGVKNKAKQGEIAFGTVDSWLIWKLTKGEVHATDFSNASRTLLLNIHELRWDEEVLEIFEIPPEILPELKSSDSVFGYTDLGFLPKKIPIVGVMGDSSAALFGQGGFYSGDIKVTYGTGSSTMLNIGEKPNVSDSPIVCSVGWVVKETSSYVLEGNIHSAGDTIVWLKEKLGIISDPSETEKIALSLENNGGVYLVPAFVGLGAPYWRSDVKAAILGLQRNHGKEHVVRAALESIAYQVRDIFEEMVRISSKEPTEVRADGGITRNRFLMQFQADILNIPVLVSNIEEVSARGVAFVALLHLGAFSDLEEIRQKITYREKYEPRMGDELREMYYEGWKTAIRKLLTE,not soluble
2,MGSDKIHHHHHHMDSLVVPGLDTLRRWLDEIGISFFECDSCQALHLPHMQNFDGIFDAKIDLVDNVVLFSALAEVKPSALLALSADLSAINASSLTVKAFIDIQDDNLPKLVVCQSLSIGPGVTMEQFAWFFRQSEEQISMVILEAGANQLLYKGEEEEPAAENVQYHFLH,not soluble
3,MGSDKIHHHHHHMPTINSIQTTVNGVVKIVKPFNNDIAGEQFDPHVLQTLTAFKQPAILENDLAALRSGSLTPAIADPVGDAVTVQSRNITALNRTVSVEWLTPQNVINHTVLVYFHGGAFYGGVPGNNTVLLKLVAAKSHCEILNVDYSLAPEAPAPAGILDGLAIFQYLEQRDAETMITVAGDSAGANVIMAATNLNQQLGSNRINQQLLLYPVTAPNADHAGPLWDLAAFPIIDSQRAILTNYHDLFRQLDSIMTDYYVPENFDSHSPLISPLHQENFTMTPPTTIMVGEFDPFRPQAWAYAQRLAAADTATTFIQYQGLNHAFAPLVDQYWQSQDVAQVMAAALI,not soluble
4,MSQLQEMMTVVSQREVAYNIFEMVLKGTLVDEMDLPGQFLHLAVPNGAMLLRRPISISSWDKRAKTCTILYRIGDETTGTYKLSKLESGAKVDVMGPLGNGFPVAEVTSTDKILIIGGGIGVPPLYELAKQLEKTGCQMTILLGFASENVKILENEFSNLKNVTLKIATDDGSYGTKGHVGMLMNEIDFEVDALYTCGAPAMLKAVAKKYDQLERLYISMESRMACGIGACYACVEHDKEDESHALKVCEDGPVFLGKQLSL,soluble
5,MGHHHHHHSHMIQPRLLADAIVLFTSSQEEVTLAVTPLNFCLKSSNEESMDLSNAVHSEMFVGSDEFDFFQIGMDTEITFCFKELKGILTFSEATHAPISIYFDFPGKPLALSIDDMLVEANFILATLADEQSRASSPQSLCLSQKRKRSDLIEKKAGKNVTGQALECISKKAAPRRLYPKETLTNISALENCGSPAMKRVDGDVSEVSESSVSNTEEVPGSLCLRKFSCMFFGAVSSDQQEHFNHPFDSLARASGSEEDMNNVCCRKEFNGSDAEYFCII,not soluble
6,MGEQSHEKDHDEAHSYNPFVRSAVEYDADTRLQMAENAASARKLFVSSALKDIIVNPENFYHDFQQSAQMAEDANQRRQVSYNTKREAHIHQLKAQGLPLPSNIPMIEINPTRVTLNMEFESQYYSLMTSDNGDHENVASIMAETNTLIQLPDRSVGGTTPDPFAQQVTITGYFGDVDRARMLMRRNCHFTVFMALSKMKMPLHELQAHVRQNPIQNVEMSFVDAPEKNGIVTTYLRITAREKNQHELIEAAKRLNEILFRESPAPENNFTLHFTLSTYYVDQVLGSSSTAQLMPVIERETTTIISYPCYNNRNETRGNIYEIKVVGNIDNVLKARRYIMDLLPISMCFNIKNTDMAEPSRVSDRNIHMIIDESGIILKMTPSVYEPADLLSGEVPLNCASLRSKEFNIKKLYTAYQKVLSKKFDFIAPQPNDYDNSIWHHSLPANFLKNFNMPCRGELSDGSNGRRHRSSSIASSRSKHSYMSKGKQFSESSGGPSRSHTRVSSFSENSSTVPIMQFPTPHFAPPMLTPHHHMLKYVYLQQHQQAQTFLKGAAGLHPGTHIMFPPPIIVDGSFVSALPFADPVVFDGFPYVHGLFPVNEAEQHRNHRESSPSLRSTQEIRKPSRNMGNRPSSSTGSYYPSTTPRQRVYEQVREDDLRSHIGSRRTSVNGDDQNVESMHDQGYERQYPRQHQRLQKDDQQRWKTGSRGDIHSSRTINVHRDVRNSNEYDFHVGNSGPAKRSPSLEQVQLQMTHHLKLKSNDVDLDHEKLYMHESPHNDSDTTVSASGFGNDLMDGDFVQRFLSNANINESGRRPRTVSCFTEKDGQSARYIDSDGAYSVVDHASTHQSRSYDSFRKVGDNGVTKTILEPRARVEKDYGKISLEHKTKYSNEYGDEEKSAENDTSSLGSRQYRIDPMKRNIYILRNRDFSNSFFYFLHQFSLYMNPICAYRIRLHQFLSYKPSICLSRISLYPRDLYD,not soluble
7,MGAGSQTTGAGQKKVQTITVGTGTQFPNICFIDEKGDLTGYDVELIKELDKRLPHYKFTFKTMEFSNLLVSLGQHKVDIVAHQMEKSKEREKKFLFNKVAYNHFPLKITVLQNNDTIRGIEDLKGKRVITSATSNGALVLKKWNEDNGRPFEIAYEGQGANETANQLKSGRADATISTPFAVDFQNKTSTIKEKTVGNVLSNAKVYFMFNKNEQTLSDDIDKALQEIIDDGTLKRLSLKWLGDDYSKEQYLEHHHHHH,soluble
8,MALSILFLSIASLTLSSSLIIDHYFHLSFLRNPLKSQSGGGKMKPKVFITREIPEVGIKMLEDEFEVEVWGDEKEIPREILLKKVKEVDALVTMLSERIDKEVFENAPKLRIVANYAVGYDNIDIEEATKRGIYVTNTPDVLTDATADLAFALLLATARHVVKGDRFVRSGEWKKRGVAWHPKWFLGYDVYGKTIGIIGLGRIGQAIAKRAKGFNMRILYYSRTRKEEVERELNAEFKPLEDLLRESDFVVLAVPLTRETYHLINEERLKLMKKTAILINIARGKVVDTNALVKALKEGWIAGAGLDVFEEEPYYNEELFKLDNVVLTPHIGSASFGAREGMAELVAKNLIAFKRGEIPPTLVNREVIKIRKPGFE,soluble
9,MYRVFVFDLDGTLLNDNLEISEKDRRNIEKLSRKCYVVFASGRMLVSTLNVEKKYFKRTFPTIAYNGAIVYLPEEGVILNEKIPPEVAKDIIEYIKPLNVHWQAYIDDVLYSEKDNEEIKSYARHSNVDYRVEPNLSELVSKMGTTKLLLIDTPERLDELKEILSERFKDVVKVFKSFPTYLEIVPKNVDKGKALRFLRERMNWKKEEIVVFGDNENDLFMFEEAGLRVAMENAIEKVKEASDIVTLTNNDSGVSYVLERISTDCLDE,soluble
10,MGSDKIHHHHHHEQKTATSEMTDVSRLMPVKIKQTVKGQEEEMLIDTVKEANRKNIKFSIAGAQHSMGGHTYYEDGIVLDMTGYNKILSLDQEKKTIRVQSGATWNDIQKYVNPYGLAVKVMQSQNIFTIGGSLSANAHGRDIRYGSLIDTVKSFRLLKADGMIITVTPKDDLFTAVIGGYGLFGVILDVTLELTDDELYVMKTEKMNYSTYSDYFSKHVKGNPDVRMHLARISTAKKGFLKDMYVTNYVLANHQDQLSSYSELKEDEYTGATKFALGLSRRYEWGRNWLWDTQQSYFLSQNGTEISRNNVMRSESKFLEYENNDNTDVLQEYFVPVKEYGSYIDDLRQTLSDEDLNLLNITIRYVQKNEKADLSYAKDDMFSLVLLINEGFSKEDQADTARIIRRMTDVAIKHGGSYYLPYMTYQTKAQMRQAYPKSEAFFQKKRTYDPDERFMNYFYQRYK,not soluble
11,MENEQQQAQTAPSCRAGCGFFGASATEGYCSQCFKNTLKRQQDTVRLTSPVVSPSSMAATSSALKSEPSSVDMCMKAAVSVSDETAKMDCEDIINVCDQINDDSVTVAESTAPTTITVDVPVPVKKANRCHMCKKRVGLTGFSCRCGGLYCGDHRYDQAHNCQFDYKTMERETIRKNNPVVVSDKVQRI,soluble
12,TRTLRGVMRVGLVAKCLLLKGDLDLELVLLCKEKPTTALLDKVADNLAIQLAAVTEDKYEILQSVDDAAIVIKNTKEPPLSLTIHLTSPVVREEMEKVLAGETLSVNDPPDVLDRQKCLAALASLRHAKWFQARANGLKSCVIVIRVLRDLCTRVPTWGPLRGWPLELLCEKSIGTANRPMGAGEALRRVLECLASGIVMPDGSGIYDPCEKEATDAIGHLDRQQREDITQSAQHALRLAAFGQLHKVLGMD,not soluble
13,SSRIGEIKEETTSHLRSCEYKGRPPKAGAEPASEREVS,soluble
